Data: article PMC8204342, “Dual arginine recognition of LRRK2 phosphorylated Rab GTPases” (Biophysical Journal, 2021)

B1: RILPL2 extended Rab-binding domain, residues 117-165, tag cleaved (domain or fragment, human, UniProt Q969X0 117-165, looked up)
chain: GPNKMVVDLTDPNRPRFTLQELRDVLQERNKLKSQLLVVQEELQCYKSG
notes: Parallel coiled-coil dimer in the crystal; source: E. coli BL21(DE3), purified (Ni2+-agarose, TEV cleavage, MonoS); not shown: His6, N-terminal, cleaved; MBP, N-terminal, cleaved
B2: His6-RILPL2 129-165 synthetic peptide (minimal Rab-binding domain) (peptide, UniProt Q969X0 129-165, looked up)
chain: NRPRFTLQELRDVLQERNKLKSQLLVVQEELQCYKSG
notes: source: synthetic peptide (GenScript); not shown: His6, N-terminal, kept
B3: Rab8a(Q67L + T72E), phosphomimetic mutant, residues 1-181 (natural protein, human, UniProt P61006 1-181, looked up)
chain: MAKTYDYLFKLLLIGDSGVGKTCVLFRFSEDAFNSTFISTIGIDFKIRTIELDGKRIKLQIWDTAGLERFREITTAYYRGAMGIMLVYDITNEKSFDNIRNWIRNIEEHASADVEKMILGNKCDVNDKRQVSKERGEKLALDYGIKFMETSAKANINVENAFFTLARDIKAKMDKKLEGNS
notes: Rab8a, human, residues 1-181, Q67L + T72E; Tag removed with thrombin; also called Rab8^TE; Rab8TE; source: E. coli, purified (Ni2+-agarose, Superdex 75); not shown: His6, N-terminal, cleaved
B4: pRab8a(Q67L), human Rab8a residues 1-181 phosphorylated at T72, GTP-bound (natural protein, UniProt P61006 1-181, looked up)
chain: MAKTYDYLFKLLLIGDSGVGKTCVLFRFSEDAFNSTFISTIGIDFKIRTIELDGKRIKLQIWDTAGLERFRTITTAYYRGAMGIMLVYDITNEKSFDNIRNWIRNIEEHASADVEKMILGNKCDVNDKRQVSKERGEKLALDYGIKFMETSAKANINVENAFFTLARDIKAKMDKKLEGNS
modifications: phosphothreonine at 72 (pT72)
notes: Tag removed with thrombin (pET28a, NdeI/BamHI); also called pRab8(Q67L); phospho-Rab8a; source: E. coli, purified (Ni2+-agarose, Superdex 75), phosphorylated in vitro by MST3 kinase, separated on MonoS; not shown: His6, N-terminal, cleaved

Columns and labels:
[1] = molecular target: the molecule itself; assay: crystal structure; pRab8(Q67L):RL2^117, 1:1 molar ratio, 5 mg/mL; 150 mM DL-malic acid, 20% PEG3350; 1.9 A
[2] = molecular target: B4; assay: ITC; Rab8^TE/pRab8a (400-600 uM) injected into RILPL2 (40-60 uM); 20 mM Tris-HCl, 150 mM NaCl, 5 mM MgCl2, 1 mM DTT, pH 7.5; triplicate; details: both partners purified
[3] = molecular target: the molecule itself; assay: crystal structure; Rab8^TE:RL2^129, 1:2 molar ratio protein/peptide, 12 mg/mL; 100 mM HEPES pH 7, 10% PEG 4000, 10% 2-propanol; 1.7 A
[4] = molecular target: B3; assay: ITC; Rab8^TE/pRab8a (400-600 uM) injected into RILPL2 (40-60 uM); 20 mM Tris-HCl, 150 mM NaCl, 5 mM MgCl2, 1 mM DTT, pH 7.5; triplicate; details: both partners purified
[5] = molecular target: B2; assay: as above; details: both partners purified
[6] = molecular target: B1; assay: as above; details: both partners purified
[7] = molecular target: T1, Full-length RILPL2 as used in calorimetry (human, UniProt Q969X0 1-211); assay: as above; details: both partners purified
T1 construct: also called RL2-FL
T1 sequence (looked up): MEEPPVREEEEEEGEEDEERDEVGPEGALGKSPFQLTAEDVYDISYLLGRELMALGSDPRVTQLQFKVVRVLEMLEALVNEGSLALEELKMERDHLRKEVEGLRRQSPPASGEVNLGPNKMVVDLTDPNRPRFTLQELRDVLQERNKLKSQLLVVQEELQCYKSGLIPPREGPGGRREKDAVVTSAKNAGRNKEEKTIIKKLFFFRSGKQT

B1
binding result [1]: binds | Kd [2]: 540 nM

B2
binding result [3]: binds | Kd [4]: 3400 nM | Kd [2]: 3300 nM

B3
dH [5]: -2.7 kcal/mol | stoichiometry N [5]: 1.03

B4
dH [6]: -7.4 kcal/mol | stoichiometry N [6]: 1.1 | dH [5]: -5.1 kcal/mol | stoichiometry N [5]: 0.92 | Kd [7]: 1400 nM | dH [7]: -1.4 kcal/mol | stoichiometry N [7]: 1.04
